Source: patent publication US20080213836

T1: Boc-Glu(OBzl)-Ala-Arg-MCA
T1 chain: EAR

T2: Gly-Asp-Asp-Asp-Asp-Lys-β-naphthylamide
T2 chain: GDDDDK

T3: Pro-Phe-Arg-MCA
T3 chain: PFR

T4: Z-Phe-Arg-MCA
T4 chain: FR

T5: human fibrinogen, P02671
T5 chain 1: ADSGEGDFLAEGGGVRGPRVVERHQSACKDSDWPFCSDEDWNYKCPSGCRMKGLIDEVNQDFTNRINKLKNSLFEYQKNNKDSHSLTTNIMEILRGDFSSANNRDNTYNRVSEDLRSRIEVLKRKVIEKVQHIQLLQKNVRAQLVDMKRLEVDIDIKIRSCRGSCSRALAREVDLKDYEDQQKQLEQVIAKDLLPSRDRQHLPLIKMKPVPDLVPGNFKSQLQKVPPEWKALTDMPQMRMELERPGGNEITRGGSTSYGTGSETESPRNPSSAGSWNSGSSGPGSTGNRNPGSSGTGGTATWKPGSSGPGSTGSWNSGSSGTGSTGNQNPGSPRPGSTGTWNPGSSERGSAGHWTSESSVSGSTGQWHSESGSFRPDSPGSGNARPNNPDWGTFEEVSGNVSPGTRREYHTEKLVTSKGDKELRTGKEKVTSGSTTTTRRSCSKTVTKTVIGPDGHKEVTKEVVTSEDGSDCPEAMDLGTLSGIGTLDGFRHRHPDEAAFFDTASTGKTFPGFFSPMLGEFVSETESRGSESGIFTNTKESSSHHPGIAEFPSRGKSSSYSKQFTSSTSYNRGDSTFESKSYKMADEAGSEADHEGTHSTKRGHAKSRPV
T5 chain 2: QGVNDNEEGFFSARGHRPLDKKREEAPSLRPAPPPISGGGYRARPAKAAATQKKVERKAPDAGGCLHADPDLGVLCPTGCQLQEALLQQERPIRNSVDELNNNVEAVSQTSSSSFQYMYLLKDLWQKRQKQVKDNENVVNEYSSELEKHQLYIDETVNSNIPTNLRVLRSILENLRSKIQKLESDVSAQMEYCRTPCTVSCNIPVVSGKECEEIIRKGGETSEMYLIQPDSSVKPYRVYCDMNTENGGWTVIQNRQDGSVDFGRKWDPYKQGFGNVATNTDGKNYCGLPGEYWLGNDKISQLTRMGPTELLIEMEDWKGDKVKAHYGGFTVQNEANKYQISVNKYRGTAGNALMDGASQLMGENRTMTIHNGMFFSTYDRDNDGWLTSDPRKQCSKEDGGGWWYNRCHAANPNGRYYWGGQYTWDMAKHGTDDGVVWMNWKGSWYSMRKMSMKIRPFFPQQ
T5 chain 3: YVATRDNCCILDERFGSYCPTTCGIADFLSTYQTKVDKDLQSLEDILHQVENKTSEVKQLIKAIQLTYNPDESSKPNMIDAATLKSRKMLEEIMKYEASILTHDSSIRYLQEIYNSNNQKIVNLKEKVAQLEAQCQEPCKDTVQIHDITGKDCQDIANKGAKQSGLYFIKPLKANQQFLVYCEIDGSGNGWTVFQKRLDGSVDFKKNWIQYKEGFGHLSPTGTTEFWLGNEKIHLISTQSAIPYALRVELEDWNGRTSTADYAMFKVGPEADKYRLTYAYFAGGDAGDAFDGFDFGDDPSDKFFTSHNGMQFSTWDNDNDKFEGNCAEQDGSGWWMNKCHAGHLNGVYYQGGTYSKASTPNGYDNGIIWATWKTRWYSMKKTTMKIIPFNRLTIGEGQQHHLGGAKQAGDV

T6: human high-molecular-weight (HMW) kininogen, P01042
T6 chain: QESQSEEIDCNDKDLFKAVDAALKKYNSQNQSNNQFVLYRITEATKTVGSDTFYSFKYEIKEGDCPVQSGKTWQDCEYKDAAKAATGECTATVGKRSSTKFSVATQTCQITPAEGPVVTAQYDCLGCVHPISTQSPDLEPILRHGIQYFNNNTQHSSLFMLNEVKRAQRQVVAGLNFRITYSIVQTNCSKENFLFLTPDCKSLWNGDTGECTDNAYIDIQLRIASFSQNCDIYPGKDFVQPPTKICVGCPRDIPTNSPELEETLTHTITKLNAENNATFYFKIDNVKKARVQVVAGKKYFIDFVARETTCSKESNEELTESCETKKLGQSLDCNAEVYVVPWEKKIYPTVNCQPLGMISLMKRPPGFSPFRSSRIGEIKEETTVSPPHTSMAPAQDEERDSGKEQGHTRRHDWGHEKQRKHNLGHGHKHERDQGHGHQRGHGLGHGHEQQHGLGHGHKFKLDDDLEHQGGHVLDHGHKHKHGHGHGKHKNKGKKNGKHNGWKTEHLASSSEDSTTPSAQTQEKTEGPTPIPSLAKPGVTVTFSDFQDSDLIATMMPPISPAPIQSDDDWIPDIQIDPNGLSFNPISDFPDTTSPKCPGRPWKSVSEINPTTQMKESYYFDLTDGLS

T7: recombinant fusion protein of human kallikrein 8 (hK8), O60259
T7 sequence (O60259 whole entry, looked up): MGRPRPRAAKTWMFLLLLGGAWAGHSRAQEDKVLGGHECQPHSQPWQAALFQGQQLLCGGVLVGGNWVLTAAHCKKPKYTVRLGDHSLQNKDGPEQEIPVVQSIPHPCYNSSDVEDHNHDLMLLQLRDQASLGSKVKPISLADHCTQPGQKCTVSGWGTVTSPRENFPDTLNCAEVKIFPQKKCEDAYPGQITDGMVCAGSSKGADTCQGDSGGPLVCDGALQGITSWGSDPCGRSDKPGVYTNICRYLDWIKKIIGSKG


Tests used:
[1] = molecular target: T1, Boc-Glu(OBzl)-Ala-Arg-MCA
[2] = molecular target: T2, Gly-Asp-Asp-Asp-Asp-Lys-β-naphthylamide
[3] = molecular target: Human plasma fibronectin, P02751
Human plasma fibronectin, P02751, sequence (P02751 other isoform, or with tags, fused parts or gaps): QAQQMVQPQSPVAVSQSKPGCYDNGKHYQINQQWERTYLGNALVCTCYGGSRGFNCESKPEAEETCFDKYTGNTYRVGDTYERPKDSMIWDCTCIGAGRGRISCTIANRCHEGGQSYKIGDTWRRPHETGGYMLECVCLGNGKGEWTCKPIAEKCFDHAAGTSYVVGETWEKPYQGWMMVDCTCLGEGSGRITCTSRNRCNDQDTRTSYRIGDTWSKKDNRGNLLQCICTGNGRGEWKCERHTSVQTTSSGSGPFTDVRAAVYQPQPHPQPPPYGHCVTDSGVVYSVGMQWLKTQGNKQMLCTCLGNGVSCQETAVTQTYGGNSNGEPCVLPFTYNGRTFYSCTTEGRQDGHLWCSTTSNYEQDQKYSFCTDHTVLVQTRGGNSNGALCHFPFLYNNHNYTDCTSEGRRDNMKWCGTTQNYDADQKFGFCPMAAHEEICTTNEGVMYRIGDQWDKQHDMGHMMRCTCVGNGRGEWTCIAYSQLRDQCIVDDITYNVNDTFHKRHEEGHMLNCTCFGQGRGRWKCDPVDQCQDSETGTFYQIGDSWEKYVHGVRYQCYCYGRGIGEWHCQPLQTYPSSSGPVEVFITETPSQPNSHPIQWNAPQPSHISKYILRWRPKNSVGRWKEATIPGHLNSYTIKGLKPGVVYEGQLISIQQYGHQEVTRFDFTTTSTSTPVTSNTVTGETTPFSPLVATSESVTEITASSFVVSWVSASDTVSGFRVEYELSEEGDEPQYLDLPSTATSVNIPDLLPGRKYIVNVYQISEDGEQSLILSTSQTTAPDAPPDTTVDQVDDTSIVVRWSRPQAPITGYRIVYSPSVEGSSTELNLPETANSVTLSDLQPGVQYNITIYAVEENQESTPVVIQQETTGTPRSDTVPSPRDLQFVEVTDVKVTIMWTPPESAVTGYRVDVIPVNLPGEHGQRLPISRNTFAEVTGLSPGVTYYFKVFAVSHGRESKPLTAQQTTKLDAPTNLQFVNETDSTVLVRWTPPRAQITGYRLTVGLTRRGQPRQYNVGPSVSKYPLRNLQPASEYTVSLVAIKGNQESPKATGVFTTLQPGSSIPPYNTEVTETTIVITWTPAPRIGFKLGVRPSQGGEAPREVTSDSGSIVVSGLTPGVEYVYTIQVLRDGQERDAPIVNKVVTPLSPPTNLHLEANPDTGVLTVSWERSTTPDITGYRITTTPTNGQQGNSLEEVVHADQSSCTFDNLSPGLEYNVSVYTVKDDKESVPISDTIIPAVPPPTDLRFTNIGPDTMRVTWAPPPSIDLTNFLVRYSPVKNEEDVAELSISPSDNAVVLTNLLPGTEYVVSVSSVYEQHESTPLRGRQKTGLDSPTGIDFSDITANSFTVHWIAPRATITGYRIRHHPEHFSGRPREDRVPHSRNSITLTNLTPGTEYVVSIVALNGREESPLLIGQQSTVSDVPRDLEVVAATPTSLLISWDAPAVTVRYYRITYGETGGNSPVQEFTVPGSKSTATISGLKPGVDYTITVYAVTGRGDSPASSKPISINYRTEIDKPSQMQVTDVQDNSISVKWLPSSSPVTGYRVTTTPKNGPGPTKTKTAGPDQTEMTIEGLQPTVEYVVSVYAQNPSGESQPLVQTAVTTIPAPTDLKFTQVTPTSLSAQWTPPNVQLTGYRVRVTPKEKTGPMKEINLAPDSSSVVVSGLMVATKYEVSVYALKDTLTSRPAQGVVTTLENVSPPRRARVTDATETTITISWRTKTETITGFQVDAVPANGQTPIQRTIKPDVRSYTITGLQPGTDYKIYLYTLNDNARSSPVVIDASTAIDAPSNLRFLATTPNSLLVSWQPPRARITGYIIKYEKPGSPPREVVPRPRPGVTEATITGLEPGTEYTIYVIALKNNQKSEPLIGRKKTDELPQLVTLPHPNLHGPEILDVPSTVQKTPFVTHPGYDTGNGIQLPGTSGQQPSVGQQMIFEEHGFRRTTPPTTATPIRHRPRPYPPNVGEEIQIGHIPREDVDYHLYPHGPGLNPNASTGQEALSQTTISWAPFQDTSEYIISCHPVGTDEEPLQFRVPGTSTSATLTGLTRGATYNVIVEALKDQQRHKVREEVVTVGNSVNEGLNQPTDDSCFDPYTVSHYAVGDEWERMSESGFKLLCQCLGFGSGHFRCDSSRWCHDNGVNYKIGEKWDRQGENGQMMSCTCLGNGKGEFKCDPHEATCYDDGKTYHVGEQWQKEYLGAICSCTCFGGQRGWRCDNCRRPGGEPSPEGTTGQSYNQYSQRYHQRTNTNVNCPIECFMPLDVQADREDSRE

[4] = molecular target: T3, Pro-Phe-Arg-MCA
[5] = molecular target: T4, Z-Phe-Arg-MCA
[6] = molecular target: T5, human fibrinogen, P02671
[7] = molecular target: T6, human high-molecular-weight (HMW) …
[8] = molecular target: human single-chain tPA fusion protein with N-terminal His-tag/EP-cleavage site, P00750
human single-chain tPA fusion protein with N-terminal His-tag/EP-cleavage site, P00750, sequence (P00750 whole entry, looked up, the tested form may be a part): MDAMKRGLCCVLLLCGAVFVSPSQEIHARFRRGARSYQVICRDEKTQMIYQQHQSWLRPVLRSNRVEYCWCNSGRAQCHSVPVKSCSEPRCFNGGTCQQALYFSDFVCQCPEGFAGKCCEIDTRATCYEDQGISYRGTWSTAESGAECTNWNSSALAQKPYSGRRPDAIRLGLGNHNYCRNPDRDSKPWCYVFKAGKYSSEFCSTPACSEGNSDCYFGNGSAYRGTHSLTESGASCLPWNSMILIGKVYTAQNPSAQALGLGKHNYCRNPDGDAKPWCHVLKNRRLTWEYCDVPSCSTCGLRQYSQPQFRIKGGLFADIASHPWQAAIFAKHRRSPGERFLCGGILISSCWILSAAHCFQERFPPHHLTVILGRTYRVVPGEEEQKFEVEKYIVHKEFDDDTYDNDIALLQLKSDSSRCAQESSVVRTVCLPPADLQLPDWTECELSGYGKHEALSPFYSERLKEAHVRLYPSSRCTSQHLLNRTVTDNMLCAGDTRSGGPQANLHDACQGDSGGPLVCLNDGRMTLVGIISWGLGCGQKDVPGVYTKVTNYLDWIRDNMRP

[9] = molecular target: mouse laminin
[10] = molecular target: recombinant fusion protein of Medaka gelatinase A
[11] = molecular target: recombinant fusion protein of Medaka trypsinogen
[12] = molecular target: T7, recombinant fusion protein of human …
[13] = molecular target: D4K-cleavage site-containing control protein (Novagen)
[14] = molecular target: gelatin

| Protein | Km [1] | kcat [1] | kcat/Km (mM^-1 · min^-1) [1] | Km [2] | kcat [2] | kcat/Km (mM^-1 · min^-1) [2] | Km [4] | kcat [4] | kcat/Km (mM^-1 · min^-1) [4] | Km [5] | kcat [5] | kcat/Km (mM^-1 · min^-1) [5] | nonspecific proteolytic activity (SDS-PAGE) [6] | nonspecific proteolytic activity (SDS-PAGE) [7] | cleavage of the fusion protein (SDS-PAGE) [13] | proteolytic activity (SDS-PAGE) [3] | proteolytic activity (gelatin zymography) [14] | cleavage of the fusion protein (SDS-PAGE/Western blot) [8] | proteolytic activity (SDS-PAGE) [9] | cleavage of the fusion protein (SDS-PAGE) [10] | other results |
| --- | --- | --- | --- | --- | --- | --- | --- | --- | --- | --- | --- | --- | --- | --- | --- | --- | --- | --- | --- | --- | --- |
| Medaka EP-1 serine protease domain mutant E173A (protein) VVGGVNAEKGAWPWMVSLHWRGRHGCGASLIGRDWLLTAAHCVYGKNTHLQYWSAVLGLHAQSSMNSQEVQIRQVDRIIINKNYNRRTKEADIAMMHLQQPVNFTEWVLPVCLASEDQHFPAGRRCFIAGWGRDAEGGSLPDILQEAEVPLVDQDACQRLLPEYTFTSSMLCAGYPEGGVDSCQGDSGGPLMCLEDARWTLIGVTSFGVGCGRPERPGAYARVSAFTSWIAETRRSSFSDLD | 1000 µM | 0.167 s⁻¹ | 10 | 300 µM | 5.33 s⁻¹ | 1100 | 1000 µM | 0.153 s⁻¹ | 9 | 400 µM | 0.0383 s⁻¹ | 6 | The mutant proteases had lower nonspecific proteolytic activity for ... human fibrinogen | The mutant proteases had lower nonspecific proteolytic activity for human HMW kininogen |  |  |  |  |  |  | enzyme activity against wild-type [1]: The same held true for all the other mutants except for F144A; enzyme activity against wild-type [2]: The same held true for all the other mutants except for F144A; hydrolysis [3]: Neither human fibronectin nor laminin was hydrolyzed by the mutants (data not shown); enzyme activity against wild-type [4]: The same held true for all the other mutants except for F144A; enzyme activity against wild-type [5]: The same held true for all the other mutants except for F144A; nonspecific proteolytic activity [6]: this mutant enzyme still retained a low nonspecific proteolytic activity for protein substrates (HMW kininogen and fibrinogen); nonspecific proteolytic activity [7]: this mutant enzyme still retained a low nonspecific proteolytic activity for protein substrates (HMW kininogen and fibrinogen); D4K cleaving activity [8]: no serious reduction of the D4K cleaving activity for fusion proteins (gelatinase A, hK8, and tPA); hydrolysis [9]: Neither human fibronectin nor laminin was hydrolyzed by the mutants (data not shown); D4K cleaving activity [10]: no serious reduction of the D4K cleaving activity for fusion proteins (gelatinase A, hK8, and tPA); activation of trypsinogen [11]: the other mutants activated trypsinogen at a reduced rate; conversion of trypsinogen to active enzyme [11]: A total of 12 mutants could convert the recombinant Medaka trypsinogen to its active enzyme (data not shown); D4K cleaving activity [12]: no serious reduction of the D4K cleaving activity for fusion proteins (gelatinase A, hK8, and tPA) |
| Bovine EP serine protease (New England Biolabs) (protein) IVGGSDSREGAWPWVVALYFDDQQVCGASLVSRDWLVSAAHCVYGRNMEPSKWKAVLGLHMASNLTSPQIETRLIDQIVINPHYNKRRKNNDIAMMHLEMKVNYTDYIQPICLPEENQVFPPGRICSIAGWGALIYQGSTADVLQEADVPLLSNEKCQQQMPEYNITENMVCAGYEAGGVDSCQGDSGGPLMCQENNRWLLAGVTSFGYQCALPNRPGVYARVPRFTEWIQSFLH | 400 µM | 9.5 s⁻¹ | 1400 | 500 µM | 25 s⁻¹ | 3000 | 2900 µM | 21.7 s⁻¹ | 450 | 400 µM | 10 s⁻¹ | 1500 | both of which were degraded noticeably by mammalian EP proteases | both of which were degraded noticeably by mammalian EP proteases | the mammalian enzymes not only produced the two expected polypeptides but also further degraded the products | these substrates were detectably hydrolyzed by the mammalian proteases | these substrates were detectably hydrolyzed by the mammalian proteases | but not with mammalian ones, showed two polypeptides (53- and 55-kDa) | these substrates were detectably hydrolyzed by the mammalian proteases | the fusion protein was extensively digested by mammalian EP serine proteases |  |
| Bovine EP serine protease (Novagen) (protein) IVGGSDSREGAWPWVVALYFDDQQVCGASLVSRDWLVSAAHCVYGRNMEPSKWKAVLGLHMASNLTSPQIETRLIDQIVINPHYNKRRKNNDIAMMHLEMKVNYTDYIQPICLPEENQVFPPGRICSIAGWGALIYQGSTADVLQEADVPLLSNEKCQQQMPEYNITENMVCAGYEAGGVDSCQGDSGGPLMCQENNRWLLAGVTSFGYQCALPNRPGVYARVPRFTEWIQSFLH | 500 µM | 12.3 s⁻¹ | 1500 | 800 µM | 12.8 s⁻¹ | 960 | 4000 µM | 13.2 s⁻¹ | 200 | 500 µM | 12 s⁻¹ | 1400 | both of which were degraded noticeably by mammalian EP proteases | both of which were degraded noticeably by mammalian EP proteases | the mammalian enzymes not only produced the two expected polypeptides but also further degraded the products | these substrates were detectably hydrolyzed by the mammalian proteases | these substrates were detectably hydrolyzed by the mammalian proteases | but not with mammalian ones, showed two polypeptides (53- and 55-kDa) | these substrates were detectably hydrolyzed by the mammalian proteases | the fusion protein was extensively digested by mammalian EP serine proteases |  |
